According to PMC5967840:

Key:
Test in all cases: AUC; sedimentation velocity (60 krpm) and sedimentation equilibrium (six rotor speeds, 30-48 krpm, single ideal species model); 325 uM peptide in PI buffer (10 mM potassium phosphate pH 7.4), 1.625 mM TCEP, 25 mM NaCl, 20 °C
CC-Tri3-K4 = target: CC-Tri3-K4
[1] = target: CC-Tri3 with tetra-lysine (K4) appended to the N terminus
CC-Tri3-R4 = target: CC-Tri3-R4
CC-R4-Tri3 = target: CC-R4-Tri3
[2] = target: CC-Tri3 variant with a negatively charged E4 block at the C terminus
[3] = target: CC-Tri3 variant with a negatively charged E4 block at the N terminus

## CC-Tri3-K4 (peptide)
CC-Tri3-K4
  stoichiometry N: 3

## CC-Tri3 with tetra-lysine (K4) appended to the N terminus (peptide)
[1]
  stoichiometry N: 3

## CC-Tri3-R4 (peptide)
CC-Tri3-R4
  stoichiometry N: 3

## CC-R4-Tri3 (peptide)
CC-R4-Tri3
  stoichiometry N: 3

## CC-Tri3 variant with a negatively charged E4 block at the C terminus (peptide)
[2]
  stoichiometry N: 3

## CC-Tri3 variant with a negatively charged E4 block at the N terminus (peptide)
[3]
  stoichiometry N: 3
